Target: human PTK-7 on cells (OV90-PTK-7, NCI-H446, OVCAR-3) (human) (UniProt Q13308)
Test: cell-based or functional assay

Chain of human PTK-7 on cells (OV90-PTK-7, NCI-H446, OVCAR-3) (human) (Q13308 31-1070 limits assumed): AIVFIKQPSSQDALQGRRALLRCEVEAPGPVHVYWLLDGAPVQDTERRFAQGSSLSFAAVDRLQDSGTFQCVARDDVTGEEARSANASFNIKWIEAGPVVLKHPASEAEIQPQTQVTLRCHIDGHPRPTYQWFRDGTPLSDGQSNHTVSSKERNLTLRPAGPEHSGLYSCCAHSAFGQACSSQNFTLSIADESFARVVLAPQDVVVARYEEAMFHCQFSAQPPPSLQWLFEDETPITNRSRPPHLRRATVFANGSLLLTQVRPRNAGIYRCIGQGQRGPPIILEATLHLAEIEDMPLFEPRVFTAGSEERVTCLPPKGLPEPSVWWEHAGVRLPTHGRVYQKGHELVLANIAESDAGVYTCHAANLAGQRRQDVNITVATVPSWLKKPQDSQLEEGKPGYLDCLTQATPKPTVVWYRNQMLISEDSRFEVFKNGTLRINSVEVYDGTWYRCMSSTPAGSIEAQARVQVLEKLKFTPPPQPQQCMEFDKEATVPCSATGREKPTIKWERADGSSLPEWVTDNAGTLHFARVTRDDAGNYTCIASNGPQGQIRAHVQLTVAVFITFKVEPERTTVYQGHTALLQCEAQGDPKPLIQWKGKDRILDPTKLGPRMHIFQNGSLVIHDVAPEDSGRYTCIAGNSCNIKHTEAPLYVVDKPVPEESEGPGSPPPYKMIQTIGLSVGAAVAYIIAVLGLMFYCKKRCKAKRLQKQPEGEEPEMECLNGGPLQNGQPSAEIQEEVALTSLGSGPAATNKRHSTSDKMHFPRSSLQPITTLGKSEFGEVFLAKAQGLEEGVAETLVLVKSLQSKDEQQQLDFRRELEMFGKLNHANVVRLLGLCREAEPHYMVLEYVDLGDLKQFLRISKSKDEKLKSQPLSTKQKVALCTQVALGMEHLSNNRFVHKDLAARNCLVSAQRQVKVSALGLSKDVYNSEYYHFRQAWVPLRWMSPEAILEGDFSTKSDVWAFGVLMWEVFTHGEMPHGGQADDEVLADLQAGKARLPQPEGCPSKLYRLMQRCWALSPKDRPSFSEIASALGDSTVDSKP

B1: Cofetuzumab-Pelidotin (protein, INN chains, looked up)
VH: QVQLVQSGPEVKKPGASVKVSCKASGYTFTDYAVHWVRQAPGKRLEWIGVISTYNDYTYNNQDFKGRVTMTRDTSASTAYMELSRLRSEDTAVYYCARGNSYFYALDYWGQGTSVTVSS
VL: EIVLTQSPATLSLSPGERATLSCRASESVDSYGKSFMHWYQQKPGQAPRLLIYRASNLESGIPARFSGSGSGTDFTLTISSLEPEDFAVYYCQQSNEDPWTFGGGTKLEIK
modifications: pelidotin auristatin payload
- Cytotoxicity IC50, OV90-PTK-7 cells (CellTiter-Glo, 5 days): 0.0331 pM
- Cytotoxicity IC50, OVCAR-3 cells (CellTiter-Glo, 7 days): 2.53 nM

Reference: patent publication US20250332277A1, “PROTEIN TYROSINE KINASE 7 ANTIBODIES AND ANTIBODY-DRUG CONJUGATES” (Eli Lilly and Company, priority 2024, published 2025)
